Measured values published in the Immune Epitope Database (IEDB).

Experiments:
HLA-A*69:01 = assay: IEDB peptide-MHC binding, purified MHC/direct/fluorescence; filed as Kd, often an IC50 or EC50 that approximates it; ≥ and ≤ were set here for values at or beyond the usual limits of such assays
HLA-B*15:01 = assay: as above
HLA-B*38:01 = assay: as above
HLA-B*48:01 = assay: as above
HLA-B*18:01 = assay: as above
HLA-B*15:17 [1] = assay: as above
HLA-A*02:01 [2] = assay: as above
HLA-B*15:09 = assay: as above
HLA-A*31:01 = assay: as above
HLA-A*11:01 = assay: as above
HLA-B*58:01 = assay: as above
HLA-A*01:01 = assay: as above
HLA-B*39:01 = assay: as above
HLA-B*40:01 = assay: as above
HLA-B*08:01 [3] = assay: as above
HLA-B*46:01 = assay: as above
HLA-B*57:01 = assay: as above
HLA-B*07:02 = assay: as above
HLA-A*03:01 = assay: as above
HLA-B*27:05 = assay: as above
HLA-A*02:03 [4] = assay: IEDB peptide-MHC binding, purified MHC/competitive/fluorescence; filed as Kd, often an IC50 or EC50 that approximates it; ≥ and ≤ were set here for values at or beyond the usual limits of such assays; conditions: source organism: Influenza A virus (A/swine/Italy/1521/98(H1N2))
HLA-A*26:01 = assay: IEDB peptide-MHC binding, purified MHC/direct/fluorescence; filed as Kd, often an IC50 or EC50 that approximates it; ≥ and ≤ were set here for values at or beyond the usual limits of such assays
HLA-A*26:02 = assay: IEDB peptide-MHC binding, purified MHC/competitive/fluorescence; filed as Kd, often an IC50 or EC50 that approximates it; ≥ and ≤ were set here for values at or beyond the usual limits of such assays; conditions: source organism: Hantaan virus 76-118
HLA-A*80:01 = assay: IEDB peptide-MHC binding, purified MHC/direct/fluorescence; filed as Kd, often an IC50 or EC50 that approximates it; ≥ and ≤ were set here for values at or beyond the usual limits of such assays; conditions: source organism: Yellow fever virus
HLA-A*29:02 = assay: as above; conditions: source organism: Entamoeba histolytica HM-1:IMSS
HLA-A*02:11 = assay: as above
HLA-B*27:03 = assay: as above
HLA-A*24:03 = assay: as above
HLA-A*02:03 [5] = assay: as above
HLA-A*02:16 = assay: as above
HLA-A*02:12 = assay: as above
HLA-A*02:19 = assay: as above
HLA-C*08:02 = assay: as above
HLA-B*35:01 = assay: IEDB peptide-MHC binding, purified MHC/competitive/fluorescence; filed as Kd, often an IC50 or EC50 that approximates it; ≥ and ≤ were set here for values at or beyond the usual limits of such assays; conditions: source organism: Yersinia pestis Nepal516
HLA-A*02:01 [6] = assay: as above; conditions: source organism: Yersinia pestis Nepal516
HLA-B*51:01 = assay: IEDB peptide-MHC binding, purified MHC/direct/fluorescence; filed as Kd, often an IC50 or EC50 that approximates it; ≥ and ≤ were set here for values at or beyond the usual limits of such assays
HLA-B*15:17 [7] = assay: IEDB peptide-MHC binding, purified MHC/competitive/fluorescence; filed as Kd, often an IC50 or EC50 that approximates it; ≥ and ≤ were set here for values at or beyond the usual limits of such assays; conditions: source organism: Influenza A virus H3N2
HLA-B*08:01 [8] = assay: as above; conditions: source organism: Influenza A virus H3N2
HLA-A*68:02 = assay: IEDB peptide-MHC binding, purified MHC/direct/fluorescence; filed as Kd, often an IC50 or EC50 that approximates it; ≥ and ≤ were set here for values at or beyond the usual limits of such assays; conditions: source organism: Crocodilepox virus
HLA-A*24:02 = assay: as above; conditions: source organism: Influenza A virus (A/G.H/HK/793.1/02 (H5N1))
HLA-B*44:02 = assay: as above; conditions: source organism: Influenza A virus (A/G.H/HK/793.1/02 (H5N1))
[9] = source organism: Influenza A virus (A/swine/Korea/S190/2004(H9N2))
[10] = source organism: Influenza A virus H3N2
[11] = source organism: Entamoeba histolytica HM-1:IMSS
[12] = source organism: Influenza A virus (A/Wisconsin/4755/1994(H1N1))
[13] = source organism: Influenza A virus(A/swine/Shandong/fNY/2003(H9N2))
[14] = source organism: Crocodilepox virus
[15] = source organism: Yellow fever virus
[16] = source organism: Influenza A virus (A/G.H/HK/793.1/02 (H5N1))

Measured: Kd

WIPKRNRSI
0.018 µM: HLA-B*08:01 [3]; [10]
0.644 µM: HLA-B*07:02; [9]
≥ 20 µM: HLA-A*69:01; [9] | HLA-B*15:01; [9] | HLA-B*38:01; [10] | HLA-B*48:01; [9] | HLA-B*18:01; [9] | HLA-B*15:17 [1]; [9] | HLA-A*02:01 [2]; [9] | HLA-B*15:09; [10] | HLA-A*31:01; [9] | HLA-A*11:01; [9] | HLA-B*58:01; [9] | HLA-A*01:01; [9] | HLA-B*39:01; [10] | HLA-B*40:01; [9] | HLA-B*46:01; [9] | HLA-B*57:01; [9] | HLA-A*03:01; [9] | HLA-B*27:05; [9] | HLA-A*02:03 [4]

ETYKELKAH
0.0118 µM: HLA-A*26:02
0.25 µM: HLA-A*26:01; source organism: Orthohantavirus hantanense

GVEGIGLQY
0.338 µM: HLA-A*80:01

DSFAKQPQW
≥ 20 µM: HLA-A*69:01; [11] | HLA-B*15:01; [11] | HLA-A*29:02 | HLA-A*02:11; [11] | HLA-B*27:03; [11] | HLA-A*24:03; [11] | HLA-A*02:01 [2]; [11] | HLA-A*02:03 [5]; [11] | HLA-A*02:16; [11] | HLA-B*39:01; [11] | HLA-B*46:01; [11] | HLA-A*02:12; [11] | HLA-A*26:01; [11] | HLA-A*03:01; [11] | HLA-A*02:19; [11]
0.204 µM: HLA-B*15:17 [1]; [11]

FVADYLARF
2.77 µM: HLA-C*08:02; source organism: Yersinia pestis Nepal516
0.082 µM: HLA-A*02:01 [6]
0.0033 µM: HLA-B*35:01

ITKEKKEEL
≥ 20 µM: HLA-A*69:01; [12] | HLA-B*15:01; [12] | HLA-B*38:01; [13] | HLA-B*48:01; [12] | HLA-B*18:01; [12] | HLA-A*02:01 [2]; [12] | HLA-B*15:09; [13] | HLA-A*31:01; [12] | HLA-A*11:01; [12] | HLA-B*58:01; [12] | HLA-A*01:01; [12] | HLA-B*39:01; [13] | HLA-B*51:01; [12] | HLA-B*40:01; [12] | HLA-B*46:01; [12] | HLA-A*26:01; [13] | HLA-B*57:01; [12] | HLA-B*07:02; [12] | HLA-A*03:01; [12] | HLA-B*27:05; [12] | HLA-B*15:17 [7]
4.81 µM: HLA-B*08:01 [8]

VVARLGVPY
≥ 20 µM: HLA-A*02:11; [14] | HLA-B*27:03; [14] | HLA-A*24:03; [14] | HLA-A*02:01 [2]; [14] | HLA-A*02:03 [5]; [14] | HLA-A*02:16; [14] | HLA-B*39:01; [14] | HLA-B*51:01; [14] | HLA-A*68:02 | HLA-A*02:12; [14] | HLA-A*26:01; [14] | HLA-B*57:01; [14] | HLA-A*03:01; [14] | HLA-A*02:19; [14]

GTGDSRLTY
≥ 20 µM: HLA-A*69:01; [15] | HLA-A*02:01 [2]; [15]
0.2 µM: HLA-A*80:01

RRKTNLYGF
0.021 µM: HLA-B*27:05; source organism: Influenza A virus (A/Puerto Rico/8/34/Mount Sinai(H1N1))
≥ 20 µM: HLA-B*15:01; [16] | HLA-B*18:01; [16] | HLA-A*02:01 [2]; [16] | HLA-A*24:02 | HLA-B*15:09; source organism: Influenza A virus (A/Taiwan/2/2006(H1N1)) | HLA-A*11:01; [16] | HLA-B*58:01; [16] | HLA-A*01:01; [16] | HLA-B*40:01; [16] | HLA-B*44:02 | HLA-B*08:01 [3]; [16] | HLA-B*46:01; [16] | HLA-B*07:02; [16] | HLA-A*03:01; [16]

STAPTGSWF
≥ 20 µM: HLA-C*08:02; source organism: human gammaherpesvirus 4
